Measured values published in article PMC7617061.

Biological target: U1-C zinc finger (UniProt P09234)
Test: NMR titration
Conditions: pseudouridine at U1 strand positions 5 and 6

Sequence of UniProt P09234 (P09234 1-61): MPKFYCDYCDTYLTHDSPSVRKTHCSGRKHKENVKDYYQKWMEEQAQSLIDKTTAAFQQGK

For “AUACUUACCUG / GGAGUAAGUCU [U1 snRNA 5'-end / SMN2 E7 5'-SS RNA duplex]”, the binding signal (fold affinity increase vs no SMN-C5) was 3.
